Substrate in the data set: COc1cc(/C=C/CO)ccc1O
Nature of the data set: Kinetic characterisation of purified tobacco CAD enzyme. It counts as biochemical. Particulars: other: pure enzyme purified to homogeneity from tobacco stems; specific for NADP; pH 7.5. How it is done:
Six week old tobacco stems were frozen in liquid N, crushed with a hammer and homogenized in a Waring blender in buffer A. The homogenate was centrifuged at 45000×g for 30 min. Solid ammonium sulphate was added to the supernatant to bring it to 70% saturation and proteins were precipitated at 4° C. for 30 min. The precipitate was collected by centrifugation at 10,000 rpm for 1 hour. The pellet was resuspended in a minimum volume of buffer supplemented with 5% ethylene glycol, to reduce the ammonium sulphate concentration to approximately 40% saturation.
The supernatant was desalted and applied to a Blue Sepharose column. The column was washed in at least 6 column volumes buffer including one column volume supplemented with 4 mM NAD. This wash elutes other alcohol dehydrogenases. Specific elution of CAD was performed with a gradient of 0-4 mM NADP in buffer B. CAD-containing fractions were pooled and 5% ethylene glycol was added.
The pooled fractions from Blue Sepharose were applied to an FPLC Mono Q column. The column was washed until the Absorbance dropped to baseline levels. Proteins were eluted in a linear gradient of buffer with 20-400 mM Tris-HCl, pH 7.5.
MonoQ fractions were applied to a column of 2'5'ADP-Sepharose. The column was washed with 6 column volumes buffer including one column volume supplemented with 4 mM NAD. […]

Results on 1 protein are retold here after US6066780A, “Modification of lignin synthesis in plants” (Zeneca Limited, priority 1991, dated 2000).

B1: tobacco cinnamyl alcohol dehydrogenase (CAD, E.C. 1.1.1.195), purified from tobacco stems (Nicotiana tabacum) (protein)
chain 1: MGSLDVEKSAIGWAARDPSGLLSPYTYTLRNTGPEDVQVKVLYCGLCHSDLHQVKNDLGMSNYPLVPGHEVVGKVVEVGADVSKFKVGDTVGVGLLVGSCRNCGPCKREIEQYCNKKIWNCNDVYTDGKPTQGGFANSMVVDQNFVVKIPEGMAPEQAAPLLCAGITVYSPFNHFGFNQSGFRGGILGLGGVGHMGVKIAKAMGHHVTVISSSNKKRQEALEHLGADDYLVSSDTDKMQEAADSLDYIIDTVPVGHPLELYLSLLKIDGKLILIGVINTPLQFISPMVMLGRKSITGSFIGSMKETEEMLDFCKEKGVTSQIEIVKMDYINTAMERLEKNDVSYRFVVDVAGSKLDQ
chain 2: MGGLEVEKTTIGWAARDPSGVLSPYTYTLRNTGPEDVEVKVLYCGLCHTDLHQVKNDLGMSNYPLVPGHEVVGEVVEVGPDVSKFKVGDTVGVGLLVGSCRNCGPCKRDIEQYCNKKIWNCNDVYTDGKPTQGGFAKSMVVDQKFVVKIPEGMAPEQAAPLLCAGITVYSPLNHFGFKQSGLRGGILGLGGVGHMGVKIAKAMGHHVTVISSSNKKRQEALEHLGADDYLVSSDTDKMQEASDSLDYIIDTVPVGHPLEPYLSLLKIDGKLILMGVINTPLQFISPMVMLGRKSITGSFIGSMKETEEMLDFCKEKGVTSQIEIVKMDYINTAMERLEKNDVRYRFVVDVIGSKLDQ
notes: Using this protocol tobacco CAD was purified to homogeneity; from tissue; host or cells: stems of six week old tobacco plants
As usually defined, the Km is the substrate concentration at which the rate is half of its maximum. Consider B1, for which the Michaelis-Menten constant (Km) worked out at 12 µmol/L.
